From US10450368 (DUKE UNIVERSITY, dated 2019)
Read-outs that look alike come from different tables or passages of the source.

T1: SSB (UniProt P05455 1-408)
T1 sequence: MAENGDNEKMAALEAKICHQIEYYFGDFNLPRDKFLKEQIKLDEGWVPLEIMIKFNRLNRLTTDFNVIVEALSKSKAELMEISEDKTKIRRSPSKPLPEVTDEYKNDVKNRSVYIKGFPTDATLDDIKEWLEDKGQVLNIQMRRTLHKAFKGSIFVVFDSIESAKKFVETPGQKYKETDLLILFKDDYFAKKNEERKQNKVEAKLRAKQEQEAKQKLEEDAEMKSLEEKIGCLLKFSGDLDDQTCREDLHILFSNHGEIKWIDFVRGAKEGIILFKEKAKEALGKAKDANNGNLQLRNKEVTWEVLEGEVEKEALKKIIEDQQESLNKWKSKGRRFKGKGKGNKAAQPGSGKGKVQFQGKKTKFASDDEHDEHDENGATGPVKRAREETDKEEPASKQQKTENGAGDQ

T2: Jo-1 (UniProt P12081 1-509)
T2 sequence: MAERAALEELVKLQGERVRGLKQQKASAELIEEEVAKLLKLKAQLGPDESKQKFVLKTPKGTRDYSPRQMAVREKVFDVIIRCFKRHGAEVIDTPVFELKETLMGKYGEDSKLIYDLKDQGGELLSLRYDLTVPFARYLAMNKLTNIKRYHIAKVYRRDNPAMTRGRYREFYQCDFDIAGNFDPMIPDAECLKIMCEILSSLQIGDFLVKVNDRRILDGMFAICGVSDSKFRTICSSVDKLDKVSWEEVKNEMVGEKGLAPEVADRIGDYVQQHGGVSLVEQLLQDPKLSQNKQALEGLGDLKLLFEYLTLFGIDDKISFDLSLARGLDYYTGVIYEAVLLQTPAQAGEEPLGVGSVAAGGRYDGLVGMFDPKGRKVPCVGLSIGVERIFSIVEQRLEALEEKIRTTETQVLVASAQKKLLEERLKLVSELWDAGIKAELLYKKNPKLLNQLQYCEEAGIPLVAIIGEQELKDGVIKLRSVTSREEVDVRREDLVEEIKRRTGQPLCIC

T3: Scl-70 (UniProt P11387 1-765)
T3 sequence: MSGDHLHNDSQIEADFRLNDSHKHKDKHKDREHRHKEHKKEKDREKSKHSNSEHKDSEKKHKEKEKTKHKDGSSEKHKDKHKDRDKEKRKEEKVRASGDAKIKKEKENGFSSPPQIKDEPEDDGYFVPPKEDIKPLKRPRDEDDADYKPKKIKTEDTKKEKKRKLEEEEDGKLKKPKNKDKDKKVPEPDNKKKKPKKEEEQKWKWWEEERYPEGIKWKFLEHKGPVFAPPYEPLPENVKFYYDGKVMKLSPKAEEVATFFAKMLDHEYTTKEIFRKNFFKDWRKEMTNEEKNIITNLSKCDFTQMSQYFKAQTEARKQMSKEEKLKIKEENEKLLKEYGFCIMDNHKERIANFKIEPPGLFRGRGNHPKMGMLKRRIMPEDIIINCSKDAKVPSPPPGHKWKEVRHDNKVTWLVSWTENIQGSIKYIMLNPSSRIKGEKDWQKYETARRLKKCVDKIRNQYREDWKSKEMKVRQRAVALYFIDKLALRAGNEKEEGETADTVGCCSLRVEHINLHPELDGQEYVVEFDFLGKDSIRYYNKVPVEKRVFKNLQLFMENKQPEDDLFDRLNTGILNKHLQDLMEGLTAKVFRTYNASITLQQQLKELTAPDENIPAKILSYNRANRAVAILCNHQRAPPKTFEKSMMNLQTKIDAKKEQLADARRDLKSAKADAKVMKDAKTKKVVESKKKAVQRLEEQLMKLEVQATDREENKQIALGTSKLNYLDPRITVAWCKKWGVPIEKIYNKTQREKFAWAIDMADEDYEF

T4: Centromere B (UniProt P07199 1-599)
T4 construct: also called Cent B
T4 sequence: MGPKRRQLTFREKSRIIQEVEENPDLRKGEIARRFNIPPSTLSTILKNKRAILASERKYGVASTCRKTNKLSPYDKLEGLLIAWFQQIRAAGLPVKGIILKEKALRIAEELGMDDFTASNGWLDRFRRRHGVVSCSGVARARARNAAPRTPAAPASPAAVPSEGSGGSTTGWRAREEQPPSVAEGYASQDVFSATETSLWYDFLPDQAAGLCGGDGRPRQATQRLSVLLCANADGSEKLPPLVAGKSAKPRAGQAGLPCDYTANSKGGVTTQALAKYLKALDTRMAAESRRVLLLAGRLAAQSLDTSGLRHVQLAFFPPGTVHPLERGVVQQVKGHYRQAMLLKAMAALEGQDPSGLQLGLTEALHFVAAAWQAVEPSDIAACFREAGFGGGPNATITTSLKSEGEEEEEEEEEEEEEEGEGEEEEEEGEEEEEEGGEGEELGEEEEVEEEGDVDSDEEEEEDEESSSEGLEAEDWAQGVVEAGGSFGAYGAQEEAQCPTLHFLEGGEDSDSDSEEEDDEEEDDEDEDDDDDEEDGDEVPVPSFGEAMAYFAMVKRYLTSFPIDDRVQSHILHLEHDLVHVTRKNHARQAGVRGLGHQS


Key:
[1] = biological target: T5, HIV-1 CH505 transmitted/founder gp120 Env (HIV-1); assay: direct-binding ELISA (OD450), panel 'CH505.TF gp120'
T5 construct: domain: gp120; also called CH505.TF gp120; CH505 TF gp120 Env

SSB [2] = biological target: T1, SSB; assay: AtheNA, Ab 6.25 ug/ml
Source text: (§1) AtheNA Multi-Lyte ANA Plus Test System is one such assay. This is luminex-based assay, which is also used to screen patient sera.

Sm (Smith antigen) [3] = biological target: T6, Sm (Smith antigen); assay: AtheNA, Ab 6.25 ug/ml
T6 construct: Protein complex
Source text: as §1

SSA [4] = biological target: T7, SSA; assay: AtheNA, Ab 6.25 ug/ml
T7 construct: also called SSA (Ro)
Source text: as §1

CH505.TF mutant gp120 M6 = biological target: T8, CH505.TF mutant gp120 M6 (HIV-1); assay: direct-binding ELISA (OD450), panel 'CH505.TF gp120 M6'
T8 construct: domain: gp120

Jo-1 = biological target: T2, Jo-1; assay: AtheNA, Ab 6.25 ug/ml
Scl-70 = biological target: T3, Scl-70; assay: AtheNA, Ab 6.25 ug/ml
Centromere B = biological target: T4, Centromere B; assay: AtheNA, Ab 6.25 ug/ml
Histones = biological target: T9, Histones; assay: AtheNA, Ab 6.25 ug/ml
T9 construct: Mixture of proteins

SSB [5] = biological target: T1, SSB; assay: AtheNA, Ab 6.25 ug/ml; remark: listed apart in the source
RNP (ribonucleoprotein) = biological target: T10, RNP (ribonucleoprotein); assay: AtheNA, Ab 6.25 ug/ml
T10 construct: Protein-RNA complex

Sm (Smith antigen) [6] = biological target: T6, Sm (Smith antigen); assay: AtheNA, Ab 6.25 ug/ml; remark: listed apart in the source
SSA [7] = biological target: T7, SSA; assay: AtheNA, Ab 6.25 ug/ml; remark: listed apart in the source

| Binder | EC50 (read off the curve) [1] [µg/mL] | AtheNA signal (SSB [2]) | AtheNA signal (Sm (Smith antigen) [3]) | AtheNA signal (SSA [4]) | EC50 (read off the curve) (CH505.TF mutant gp120 M6) [µg/mL] | AtheNA signal (Jo-1) | AtheNA signal (Scl-70) | AtheNA signal (Centromere B) | AtheNA signal (Histones) | AtheNA signal (SSB [5]) | AtheNA signal (RNP (ribonucleoprotein)) | AtheNA signal (Sm (Smith antigen) [6]) | AtheNA signal (SSA [7]) |
| --- | --- | --- | --- | --- | --- | --- | --- | --- | --- | --- | --- | --- | --- |
| CH493 (antibody, V domains shown, also called CH235.9; DH493) VH: QVRLLQYGGGVKRPGASMTISCVASGYNFNDYYIHWVRQAPGQGLELMGWIDPSGGRTDYAGAFGDRVSMYRDKSMNTLYMDLRSLRSGDTAMYYCVRNVGTAGSLLHYDHWGLGVMVTVSS VL: EIVLTQSPATLSVSPGERVTLSCRASQSVRNNLAWYRQKRGQAPRLLIYGASTRATGIPARFSGSGSGTEFTLTISSMQSEDFAVYYCQQYNNWWTFGQGTKVEIK | ~0.7 | 15 | 46 | 22 | ~0.5 | – | – | – | – | – | – | – | – |
| CH557 (antibody, V domains shown, also called CH235.12; CH557_4A/293i) VH: QVRLAQYGGGVKRLGATMTLSCVASGYTFNDYYIHWVRQAPGQGFELLGYIDPANGRPDYAGALRERLSFYRDKSMETLYMDLRSLRYDDTAMYYCVRNVGTAGSLLHYDHWGSGSPVIVSS VL: EIVLTQSPATLSASPGERVTLTCRASRSVRNNVAWYQHKGGQSPRLLIYDASTRAAGVPARFSGSASGTEFTLAISNLESEDFTVYFCLQYNNWWTFGQGTRVDIK | – | – | – | – | – | 5 relative luminescence units | 3 relative luminescence units | 11 relative luminescence units | 4 relative luminescence units | 5 relative luminescence units | 4 relative luminescence units | 4 relative luminescence units | 4 relative luminescence units |
